# Source: publication PMC2229597
# Read-outs that look alike come from different tables or passages of the source.
# Columns and labels:
# [1] = biological target: CNGA2 mutant channel 2-D316C (UniProt Q00195)
# [2] = biological target: CNGA2 mutant channel 2-Y321C modified with MTSET (UniProt Q00195)
# [3] = biological target: CNGA2 mutant channel 2-Y321C modified with MTSES (UniProt Q00195)
# [4] = biological target: homomeric CNG channel composed of olfactory CNGA2 (UniProt Q00195); test: patch-clamp electrophysiology
# [5] = biological target: CNGA2 mutant channel 2-D316N (UniProt Q00195)
# [6] = biological target: CNGA2 mutant channel 2-Y321R (UniProt Q00195)
# [7] = biological target: homomeric CNG channel composed of olfactory CNGA2 (UniProt Q00195); test: patch-clamp electrophysiology; remark: listed apart in the source
# [8] = biological target: CNGA3 mutant channel 3-N361D (UniProt Q29441)
# [9] = biological target: CNGA3 double mutant channel 3-N361D/R366Y (UniProt Q29441)
# [10] = biological target: CNGA3 mutant channel 3-R366Y (UniProt Q29441)
# [11] = biological target: CNGA2 mutant channel 2-S301F (UniProt Q00195); test: patch-clamp electrophysiology
# [12] = biological target: heteromeric CNG channel containing CNGA2 and CNGA4 (UniProt Q00195); test: patch-clamp electrophysiology
# [13] = biological target: CNGA2 mutant channel 2-E325K (UniProt Q00195); test: patch-clamp electrophysiology
# [14] = biological target: homomeric CNG channel composed of olfactory CNGA2 (UniProt Q00195); test: patch-clamp electrophysiology; remark: listed apart in the source
# [15] = biological target: CNGA2 mutant channel 2-T308S (UniProt Q00195); test: patch-clamp electrophysiology
substance,measurement,setting,value
Pseudechetoxin (natural protein),"block of current by 500 nM PsTx, outside-out patches from oocytes",[1],33%
same,block of current by 500 nM PsTx after modification of the patch with MTSET,[2],81%
same,block of current by 500 nM PsTx after modification of the patch with MTSES,[3],93%
same,Ki,[4],24 nM
same,"inhibition of current by 500 nM PsTx at −60 mV, outside-out patches from oocytes",[5],< 5%
same,"inhibition of current by 500 nM PsTx at −60 mV, outside-out patches from oocytes",[6],< 5%
same,Ki,[7],180 nM
same,"inhibition of current by 500 nM PsTx, outside-out patches from oocytes (n = 9)",[8],15%
same,"inhibition of current by 500 nM PsTx, outside-out patches from oocytes (n = 4)",[9],84%
same,"inhibition of current by 500 nM PsTx, outside-out patches from oocytes",[10],2%
same,Ki,[11],16 nM
same,Kd,[12],100 nM
same,Ki,[13],123 nM
same,Ki,[14],32 nM
same,time constant of wash-off (dissociation),[14],67 s
same,Ki,[15],16 nM
